The assay has as its target T1, N-His-tagged p20 subunit of human ICE (human, UniProt P29466 120-297).
T1 construct: Subunit released from N-His p30 by autoprocessing
T1 sequence: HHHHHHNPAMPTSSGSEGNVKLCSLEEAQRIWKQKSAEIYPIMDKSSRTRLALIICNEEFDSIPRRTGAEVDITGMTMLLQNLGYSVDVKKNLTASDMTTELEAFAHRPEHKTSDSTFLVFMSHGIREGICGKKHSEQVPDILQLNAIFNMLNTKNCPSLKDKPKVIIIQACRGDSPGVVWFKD
Nature of the assay: co-expression as N-His p30 in E. coli, nickel chelating column purification. The source says: ICE (WT or modified) with an N-terminal polyhistidine tag was expressed in E. coli and purified using methodology described in Kamens et al. (1995) J. Biol. Chem., 270:15250-15256. Briefly, a DNA fragment encoding amino acid residues 120 to 404 of wild-type or D381E-modified ICE (p30) was cloned into an expression vector such that the p30-encoding fragment was fused in-frame at its N-terminus to DNA encoding six histidine residues. Following expression, the p30 fragment is correctly processed to p20 and p10 subunits, which associate to form mature, active N-His-tagged ICE proteins. The N-His ICE fusion proteins then were purified on a nickel chelating column (Porath, J. (1992) Protein Expression and Purification 2:263-281).

B1: wild-type p10 subunit of human ICE (other)
chain: AIKKAHIEKDFIAFCSSTPDNVSWRHPTMGSVFIGRLIEHMQEYACSCDVEEIFRKVRFSFEQPDGRAQMPTTERVTLTRCFYLFPGH
notes: Subunit released from WT N-His p30 by autoprocessing; also called ICE 317-404
For the molecule B1, the binding result is “binds”.

B2: D381E-modified p10 subunit of human ICE (other)
chain: AIKKAHIEKDFIAFCSSTPDNVSWRHPTMGSVFIGRLIEHMQEYACSCDVEEIFRKVRFSFEQPEGRAQMPTTERVTLTRCFYLFPGH
notes: Subunit released from D381E N-His p30 by autoprocessing; also called p10 D381E; ICE 317-404 D381E
With B2, the binding result was “binds”.

Values taken from patent US20020164762A1 (BASF AKTIENGESELLSCHAFT, published 2002).
